{
  "source": "patent US9809653B2",
  "about": "“Anti-LAMP1 antibodies and antibody drug conjugates, and uses thereof” (SANOFI, priority 2012, dated 2017)",
  "key": {"[1]": {"tested_on": "Colo205 cells", "assay": "Quenching of Alexa488 by anti-Alexa488 antibody, flow cytometry, internalized fraction", "format": "cell-based, human", "procedure": "Quantification of internalization can also be performed by fluorescence-based quenching methods. In particular, a fluorescence-based Alexa488-quenching method has been described to analyze internalisation of targeting agents (Frejd et al. 2010, International Journal of Oncology, 36: 757-763). According to said description, internalization is calculated as the Mean fluorescence intensity (MFI) value of quenched cells (intracellular compartments only) divided by the MFI value of unquenched cells (both cell surface and intracellular compartments) at 37° C., according to the following formula: […]\nThe cells were washed twice in ice cold PBS in a cold centrifuge, and resuspended in 500 nM quenching anti-Alexa488 antibody diluted in ice cold PBS. All tubes were incubated for 1 h on ice. Without washing, all cells were fixed in two volumes of 2% paraformaldehyde for 10 min at room temperature. The paraformaldehyde was removed by one wash in PBS, and the cells were resuspended in PBS and analyzed in a flow cytometer (Guava® easyCyte 8HT Flow Cytometry System).\nAn internalization positive control experiment was done in parallel with Alexa488-labelled Transferrin (600 nM).\nMean fluorescence intensity (MFI) values obtained from the flow cytometry reading of 5×10^4 cells per tube were used for all calculations. Internalization was calculated as the MFI value of quenched cells (intracellular compartments only) divided by the MFI value of unquenched cells (both cell surface and intracellular compartments) at 37° C. as described in the formula: […]"}, "[2]": {"details": "cited from earlier work"}, "[3]": {"target": "T1, cell surface LAMP1 on Patient-derived tumor xenografts and tumor cell lines (Homo sapiens, UniProt P11279)", "T1 construct": "endogenous in cells; host or cells: enzymatically dissociated patient-derived xenograft tumour cells (e.g. CR-IGR-034P, LUN-NIC-014P, BRE-IGR-0159) and tumour cell lines", "T1 sequence (P11279 29-417)": "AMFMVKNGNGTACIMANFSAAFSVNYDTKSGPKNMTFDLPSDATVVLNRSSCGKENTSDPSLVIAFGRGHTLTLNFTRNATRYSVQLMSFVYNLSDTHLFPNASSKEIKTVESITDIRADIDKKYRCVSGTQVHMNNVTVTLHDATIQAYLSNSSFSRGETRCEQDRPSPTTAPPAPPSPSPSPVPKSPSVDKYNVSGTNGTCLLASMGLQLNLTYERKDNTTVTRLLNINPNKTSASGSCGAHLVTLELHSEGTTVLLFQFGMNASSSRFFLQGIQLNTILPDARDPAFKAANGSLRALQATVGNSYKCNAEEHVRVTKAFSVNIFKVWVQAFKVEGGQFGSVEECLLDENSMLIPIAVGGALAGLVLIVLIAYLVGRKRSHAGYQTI", "assay": "Antibody binding capacity (ABC) by FACS on patient-derived xenografts and tumor cell lines", "details": "FACS", "procedure": "Antibody binding capacity of antibody was determined using Mouse IgG Calibrator kit (Biocytex #7208) or Human IgG Calibrator Kit (Biocytex #CP010) according to the manufacturer's instructions.\nThe panel of tumor cells comprises Patient-derived tumor xenografts from different origins and tumor cell lines. FIG. 2 illustrates the expression profile and Table 4 summarizes the antibody binding capacity results.\n(§1) The panel of tumor cells comprises Patient-derived tumor xenografts from different origins and tumor cell lines."}, "[4]": {"target": "T2, patient-derived xenografts from colon, lung and breast origin and tumor cell lines (Homo sapiens, UniProt P11279)", "T2 construct": "endogenous in cells; host or cells: enzymatically dissociated patient-derived xenograft tumour cells (e.g. CR-IGR-034P, LUN-NIC-014P, BRE-IGR-0159) and tumour cell lines", "T2 sequence (P11279 29-417)": "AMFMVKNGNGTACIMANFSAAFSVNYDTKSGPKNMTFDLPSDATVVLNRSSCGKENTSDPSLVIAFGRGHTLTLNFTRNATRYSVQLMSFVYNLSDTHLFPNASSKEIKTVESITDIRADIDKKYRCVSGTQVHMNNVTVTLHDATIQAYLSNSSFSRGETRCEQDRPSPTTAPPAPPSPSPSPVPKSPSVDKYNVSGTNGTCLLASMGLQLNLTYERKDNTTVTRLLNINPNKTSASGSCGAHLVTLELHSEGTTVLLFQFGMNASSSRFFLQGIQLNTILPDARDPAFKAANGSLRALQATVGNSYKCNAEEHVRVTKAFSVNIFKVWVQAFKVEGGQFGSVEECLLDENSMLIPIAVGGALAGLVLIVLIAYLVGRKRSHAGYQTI", "assay": "Binding to patient-derived xenograft tumor cells by flow cytometry (mean fluorescence)", "details": "for Mean Florescence Intensity (MFI): FACS", "procedure": "Advanced human primary tumors from colon (CR-IGR-034P), lung (LUN-NIC-014P and breast (BRE-IGR-0159) indications were obtained from patient-derived xenograft (PDX) in mice as described in example 1. PDXs were enzymatically dissociated using collagenase Type IV (Invitrogen; #17104-019) and deoxyribonuclease I (Invitrogen, #18047-019) for 1 h at 4° C. Cell viability was estimated by Viacount application using Guava® easyCyte™ 8HT Flow Cytometry System. Tumoral cells were coated at 40,000 cells/well on 96-well High Bind plate (MSD L15XB-3) and 100 μL of antibody was added at 20 μg/mL for 45 min at 4° C. and washed three times with PBS 1% BSA. 100 μL of goat anti-human IgG conjugated with Alexa488 (Invitrogen; #A11013) was added for 45 min at 4° C. and washed three times with PBS 1% BSA. The antibody binding was evaluated after centrifugation and resuspension of cells by adding 200 μL/well PBS 1% BSA and read using Guava® easyCyte™ 8HT Flow Cytometry System. The mean fluorescence was recorded and plotted in the graph shown in FIG. 12 to illustrate the expression profile of the three mAbs onto the three PDXs.\nas §1"}, "[5]": {"target": "T3, recombinant human LAMP2 (Homo sapiens, UniProt P13473)", "T3 construct": "purchased R&D Systems 6228-LM", "T3 sequence (P13473 with tags, fused parts or gaps)": "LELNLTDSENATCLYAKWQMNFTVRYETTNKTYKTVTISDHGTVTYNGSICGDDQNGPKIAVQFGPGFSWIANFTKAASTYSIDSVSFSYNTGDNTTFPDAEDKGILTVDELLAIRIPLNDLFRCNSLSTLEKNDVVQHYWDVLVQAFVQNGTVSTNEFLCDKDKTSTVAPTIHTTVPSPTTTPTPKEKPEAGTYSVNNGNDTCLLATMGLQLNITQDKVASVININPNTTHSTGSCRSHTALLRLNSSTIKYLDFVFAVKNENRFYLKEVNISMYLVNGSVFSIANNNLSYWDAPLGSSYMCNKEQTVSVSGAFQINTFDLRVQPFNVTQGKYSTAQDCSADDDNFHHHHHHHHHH", "assay": "Specificity ELISA on recombinant human LAMP2", "format": "binding", "procedure": "LAMP2 is the closest member of the LAMP family with 35% sequence identity to LAMP1. […] Anti-LAMP1 antibodies were added to the plates and detected by using rabbit anti-mouse IgG conjugated with horseradish peroxidase (Sigma; #A9044). Antibody binding was visualized by adding TMB-H2O2 buffer and read at a wavelength of 450 nm.\nLAMP2 is the closest member of the LAMP family with 35% sequence identity to LAMP1. Specificity of MAb4 was evaluated by ELISA as described in example 4.6 with either LAMP1 or LAMP2 soluble proteins, as shown in FIG. 41."}, "[6]": {"target": "T4, LAMP1 in FFPE colon adenocarcinoma PDX CR-LRB-010P and human breast carcinoma (Homo sapiens, UniProt P11279)", "T4 construct": "from tissue; host or cells: human tumoral and non-tumoral tissue sections and PDX tumour sections (frozen-OCT, AFA, FFPE)", "T4 sequence (P11279 29-417)": "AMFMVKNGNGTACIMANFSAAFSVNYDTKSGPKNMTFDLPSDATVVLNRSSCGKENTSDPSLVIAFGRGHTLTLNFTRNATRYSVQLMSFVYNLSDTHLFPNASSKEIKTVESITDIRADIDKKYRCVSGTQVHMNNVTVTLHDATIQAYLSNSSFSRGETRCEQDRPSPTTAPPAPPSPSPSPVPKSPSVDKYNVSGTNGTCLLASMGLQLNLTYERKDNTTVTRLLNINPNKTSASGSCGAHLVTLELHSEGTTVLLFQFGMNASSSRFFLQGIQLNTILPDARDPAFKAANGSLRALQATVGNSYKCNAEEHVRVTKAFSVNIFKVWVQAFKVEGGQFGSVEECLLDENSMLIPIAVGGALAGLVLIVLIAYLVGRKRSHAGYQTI", "assay": "IHC on FFPE tumor tissue, LAMP1 membrane reinforcement", "details": "FFPE samples", "from_the_text": "IHC analysis of tumor tissues from biobanks or from hospitals before or during patient treatment is routinely done with formalin-fixed paraffin-embedded (FFPE) samples. […] One of the reasons is probably the effect of the formalin fixative combined to the complexity of the protein. Samples processed in frozen OCT or AFA are not routinely prepared in hospitals. Therefore, there is a need to have a mAb that would allow complete and fast coverage of the FFPE tumor biobanks and hospital samples.\nRabbit polyclonal antibodies generated with peptides described in example 17.1.1 were tested by IHC on FFPE sample of colon adenocarcinoma patient derived xenograft CR-LRB-010P and human breast carcinoma. After antigen retrieval procedure and endogen biotins blocking steps, slides were incubated with the primary anti-antibody for 1 hour at 24° C. Negative controls were performed by omission of the primary antibody. The biotin free anti-rabbit UltraMap™ horseradish peroxidase (HRP) conjugate (760-4315, Ventana Medical Systems, Inc, USA) was used as secondary antibody system according to manufacturer's recommendations. A couterstaining step was done with hematoxylin (760-2037, Ventana Medical Systems, Inc, USA) and bluing reagent was applied (760-2037, Ventana Medical Systems, Inc, USA). Stained slides were dehydrated and coverslipped with cytoseal XYL (8312-4, Richard-Allan Scientific, USA).\nAs the same manner as in example 17.1.2, IHC screening was performed with the hybridoma supernatant to identify mouse monoclonal antibody showing LAMP1 membrane reinforcement on FFPE sample of colon adenocarcinoma patient derived xenograft CR-LRB-010P. The biotin free anti-mouse UltraMap™ horseradish peroxidase (HRP) conjugate (760-152, Ventana Medical Systems, Inc, USA) was used as secondary antibody system according to manufacturer's recommendations."}, "[7]": {"details": "Colo205, 4 h, 500 nM quenching anti-Alexa488 antibody"}},
  "note": "Read-outs that look alike come from different tables or passages of the source.",
  "data": [
    {"molecule": "Alexa488-Transferrin: internalization positive control", "values": [
      {"measurement": "MFI 4° C. Quencher", "setting": "[1]; [7]", "value": 8.98},
      {"measurement": "MFI 37° C. Quencher", "setting": "[1]; [7]", "value": 1210},
      {"measurement": "MFI 4° C.", "setting": "[1]; Colo205, 4 h, unquenched", "value": 35.78},
      {"measurement": "MFI 37° C.", "setting": "[1]; Colo205, 4 h, unquenched", "value": 1228},
      {"measurement": "total cell fluorescence that was intracellular", "setting": "[1]; Colo205, after 4 h at 37° C.", "value": "about 98.5%"}
    ]},
    {"molecule": "transferrin: transferrin, literature internalization reference", "values": [
      {"measurement": "IS", "setting": "[2]; cells incubated at 37° C. for one hour", "value": 0.9},
      {"measurement": "IS", "setting": "[2]; cells left on ice", "value": 0}
    ]},
    {"molecule": "MAb4: mouse monoclonal anti-LAMP1 antibody from hybridoma 88LAMP1-2, VH SEQ ID NO: 88, VL SEQ ID NO: 89 (antibody, listed as Mus musculus, V domains shown) VH: QVQLQQSGAELVRPGTSVKVSCKASGYAFTNYLIEWVKQRPGQGLEWIGVINPGSGGTNYNEKFKGKATLTADKSSSTAYMQLSSLTSDDSAVYFCARYRSYDWYFDVWGAGTTVTVSS VL: DIQMTQSPASLSASVGETVTITCRVSGNIHNYLAWYQQKQGKSPQLLVYNAKTLADGVPSRFSGSGSGTQYSLKINSLQPEDFGSYYCQHFWSNPYTFGGGTKLEIK", "values": [
      {"measurement": "Antibody Binding Capacity (ABC)", "setting": "[3]; CR-IGR-034P/colorectal PDX", "value": "260 000"},
      {"measurement": "Antibody Binding Capacity (ABC)", "setting": "[3]; Colo205/colon cell line", "value": 3000},
      {"measurement": "Antibody Binding Capacity (ABC)", "setting": "[3]; LUN-NIC-006/lung PDX", "value": "92 000"},
      {"measurement": "Antibody Binding Capacity (ABC)", "setting": "[3]; LUN-NIC-033/lung PDX", "value": "87 000"},
      {"measurement": "Mean Florescence Intensity (MFI)", "setting": "[4]; BRE-IGR-0159/breast PDX", "value": 400},
      {"measurement": "Mean Florescence Intensity (MFI)", "setting": "[4]; CR-IGR-034P/colorectal PDX", "value": 424},
      {"measurement": "Mean Florescence Intensity (MFI)", "setting": "[4]; Colo205/colon cell line", "value": 7},
      {"measurement": "Mean Florescence Intensity (MFI)", "setting": "[4]; LUN-NIC-006/lung PDX", "value": 162},
      {"measurement": "Mean Florescence Intensity (MFI)", "setting": "[4]; LUN-NIC-033/lung PDX", "value": 154},
      {"measurement": "binding to tumor cells by flow cytometry", "setting": "[4]; PDX and tumor cell lines", "value": "able of binding to multiple tumor cells"},
      {"measurement": "binding to LAMP2", "setting": "[5]", "value": "No binding"},
      {"measurement": "difference between the EC50 towards LAMP1 versus LAMP2", "setting": "[5]", "value": "more than 100 fold"},
      {"measurement": "LAMP1 membrane reinforcement in FFPE format by IHC", "setting": "[6]", "value": "displayed membrane reinforcement immunostaining"}
    ]}
  ]
}
